In paper PMC12525431 (International Journal of Molecular Sciences, 2025) one finds Kd data, which are given here for one molecule.

The experiment has as its target sTREM-1 (UniProt Q9NP99-2 21-150, labelled with Alexa Fluor 488 (Protein Labeling Kit)). The experiment can be described thus: MST; sTREM-1 labelled with Alexa Fluor 488; peptide in 16 concentrations by sequential dilution; 30 min in the dark at room temperature; Monolith NT.115, 8% IR laser power; at least three replicates. The settings on record: both partners purified.

Chain of sTREM-1 (Q9NP99 other isoform, or with tags, fused parts or gaps): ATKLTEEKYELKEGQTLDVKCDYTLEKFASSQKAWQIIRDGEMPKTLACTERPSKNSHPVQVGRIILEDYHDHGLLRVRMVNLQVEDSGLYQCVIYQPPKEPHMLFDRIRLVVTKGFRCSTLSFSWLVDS

B1: peptide N7 (16aa peptide of Hsp70) (peptide)
peptide: SDNQPGVLIQVYEGEK
notes: Hsp70, human; Found by MALDI-TOF in a trypsin hydrolysate of recombinant human Hsp70, then synthesised; also called N7 peptide; Hsp70 N7 peptide; source: synthetic peptide (Fmoc, purified by HPLC)
The term Kd denotes the concentration at which binding is half-saturated. The low end stands for a tighter complex, the high end for a looser complex. Turning to B1, the Kd is 1.6 nM.
